From US20240182536A1 (MURAL ONCOLOGY, published 2024) come the findings set out here.

A value given as a limit tells only on which side of the number the result lay.

The target in assay [1] is T1, interleukin 18 binding protein (IL-18BP) (UniProt O95998 31-194).
T1 sequence (looked up): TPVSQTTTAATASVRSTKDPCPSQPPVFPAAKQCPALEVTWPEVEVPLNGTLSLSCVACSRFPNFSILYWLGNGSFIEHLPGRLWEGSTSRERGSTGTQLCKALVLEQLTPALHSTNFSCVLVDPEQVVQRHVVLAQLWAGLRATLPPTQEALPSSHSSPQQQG
The assay can be described thus: cell-based or functional assay.

Assay [2] deals with T2, IL-18 receptor (IL-18Rα and IL-18Rβ) (UniProt Q13478 19-541; O95256 20-599, limits assumed).
T2 sequence (looked up) 1: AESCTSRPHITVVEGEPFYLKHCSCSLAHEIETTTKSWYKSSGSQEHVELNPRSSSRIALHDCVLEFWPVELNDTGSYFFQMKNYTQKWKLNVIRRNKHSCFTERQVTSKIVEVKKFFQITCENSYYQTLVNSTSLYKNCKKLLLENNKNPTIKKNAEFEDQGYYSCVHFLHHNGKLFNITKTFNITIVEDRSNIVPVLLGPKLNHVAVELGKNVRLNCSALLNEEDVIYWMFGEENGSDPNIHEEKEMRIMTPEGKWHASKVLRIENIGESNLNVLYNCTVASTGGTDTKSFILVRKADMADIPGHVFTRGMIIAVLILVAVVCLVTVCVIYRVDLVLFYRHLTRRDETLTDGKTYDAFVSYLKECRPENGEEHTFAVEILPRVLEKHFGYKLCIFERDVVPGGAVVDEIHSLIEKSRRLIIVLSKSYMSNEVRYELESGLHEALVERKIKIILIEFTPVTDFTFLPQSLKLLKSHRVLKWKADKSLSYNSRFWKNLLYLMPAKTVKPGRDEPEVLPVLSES
T2 sequence (looked up) 2: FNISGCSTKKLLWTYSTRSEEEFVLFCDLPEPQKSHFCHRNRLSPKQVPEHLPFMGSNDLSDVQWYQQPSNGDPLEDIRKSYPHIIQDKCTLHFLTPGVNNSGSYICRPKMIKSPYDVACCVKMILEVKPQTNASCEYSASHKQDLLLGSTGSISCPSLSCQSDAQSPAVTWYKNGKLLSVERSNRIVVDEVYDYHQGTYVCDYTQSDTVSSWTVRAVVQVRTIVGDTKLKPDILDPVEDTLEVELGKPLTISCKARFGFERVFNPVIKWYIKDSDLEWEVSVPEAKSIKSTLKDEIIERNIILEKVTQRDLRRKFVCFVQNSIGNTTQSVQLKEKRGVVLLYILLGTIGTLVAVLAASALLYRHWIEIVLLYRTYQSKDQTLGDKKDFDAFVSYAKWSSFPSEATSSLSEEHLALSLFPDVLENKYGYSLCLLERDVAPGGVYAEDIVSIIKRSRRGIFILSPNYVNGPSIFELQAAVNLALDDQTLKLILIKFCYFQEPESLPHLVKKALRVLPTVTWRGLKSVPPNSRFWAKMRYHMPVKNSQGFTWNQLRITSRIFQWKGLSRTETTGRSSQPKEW
The assay can be described thus: cell-based or functional assay.

In assay [3] the target is T3, WT human IL-18 (human, UniProt Q14116 37-193).
T3 sequence: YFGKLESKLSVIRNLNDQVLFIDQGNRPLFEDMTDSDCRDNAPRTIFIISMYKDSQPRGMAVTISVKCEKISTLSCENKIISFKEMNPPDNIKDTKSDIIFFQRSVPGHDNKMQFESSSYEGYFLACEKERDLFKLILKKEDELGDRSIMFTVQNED
Kind of assay: cell-based or functional assay.

Another assay addresses T4, IL-18 variant G3R, K53S (human, UniProt Q14116 37-193).
T4 chain: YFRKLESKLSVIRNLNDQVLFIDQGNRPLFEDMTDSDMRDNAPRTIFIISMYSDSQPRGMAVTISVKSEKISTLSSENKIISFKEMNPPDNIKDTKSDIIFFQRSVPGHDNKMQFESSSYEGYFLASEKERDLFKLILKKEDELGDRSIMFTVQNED
The assay can be described thus: cell-based or functional assay.

Assay [4] deals with T5, WT mouse IL-18 on monoFc scaffold (mouse; human, UniProt P70380 36-192).
T5 construct: mature
T5 sequence (P70380 other isoform, or with tags, fused parts or gaps): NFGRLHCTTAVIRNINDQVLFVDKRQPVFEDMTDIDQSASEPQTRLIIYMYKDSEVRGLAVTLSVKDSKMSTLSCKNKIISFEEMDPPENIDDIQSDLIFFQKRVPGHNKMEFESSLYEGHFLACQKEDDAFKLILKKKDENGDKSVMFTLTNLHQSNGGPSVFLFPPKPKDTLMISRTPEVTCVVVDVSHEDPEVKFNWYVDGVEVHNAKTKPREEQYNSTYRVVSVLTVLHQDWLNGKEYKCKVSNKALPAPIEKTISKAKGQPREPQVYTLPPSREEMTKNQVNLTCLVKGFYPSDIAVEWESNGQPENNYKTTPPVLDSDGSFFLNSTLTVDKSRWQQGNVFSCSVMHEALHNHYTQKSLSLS
Kind of assay: Octet BLI, monoFc scaffold. On the procedure: Octet 96red instrument was used to determine affinities of IL18 proteins to BP or receptors. 5-10 ug/ml analyte proteins were used for loading on Sartorius tips (AHC or SA). […] 120-180 s loading, 200 s association and 800 s dissociation were used for kinetics. 3-7 data points were used to calculate affinities.
Several mouse variants were next tested for binding affinity to mouse IL-18R alpha and mouse IL-18BP.
Background: BLI is a label-free optical method that tracks binding on a fibre tip over time.

The target in assay [5] is T3, WT human IL-18. Kind of assay: cell-based or functional assay. The source holds these as a separate data set.
Assay [6] concerns the target T6, IL-18 variant G3E, K53S (human, UniProt Q14116 37-193).
T6 chain: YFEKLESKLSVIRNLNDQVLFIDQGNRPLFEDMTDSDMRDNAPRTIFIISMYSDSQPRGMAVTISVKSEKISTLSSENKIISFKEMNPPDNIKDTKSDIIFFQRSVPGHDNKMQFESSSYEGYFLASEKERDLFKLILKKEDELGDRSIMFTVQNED
The assay can be described thus: cell-based or functional assay.

Assay [7] deals with T7, IL-18 variant G3H, N91V, K53S (human, UniProt Q14116 37-193).
T7 chain: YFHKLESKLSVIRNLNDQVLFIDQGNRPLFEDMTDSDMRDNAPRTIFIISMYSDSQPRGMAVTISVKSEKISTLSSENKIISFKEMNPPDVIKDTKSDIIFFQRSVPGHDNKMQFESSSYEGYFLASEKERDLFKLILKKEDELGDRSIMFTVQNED
The assay can be described thus: cell-based or functional assay.

In assay [8] the target is T3, WT human IL-18. The assay can be described thus: cell-based or functional assay. The source holds these as a separate data set.
The target of assay [9] is T6, IL-18 variant G3E, K53S. The assay can be described thus: cell-based or functional assay.
Assay [10] deals with T7, IL-18 variant G3H, N91V, K53S. Kind of assay: cell-based or functional assay.
A further assay has as its target T8, IL-18 variant G3T, K53S (human, UniProt Q14116 37-193).
T8 chain: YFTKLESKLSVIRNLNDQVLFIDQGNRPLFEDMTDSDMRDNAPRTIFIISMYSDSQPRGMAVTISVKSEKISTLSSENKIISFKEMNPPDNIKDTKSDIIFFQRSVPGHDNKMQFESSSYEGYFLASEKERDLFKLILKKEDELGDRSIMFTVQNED
The assay can be described thus: cell-based or functional assay.

A further assay deals with T9, IL-18 variant G3T, M60K (human, UniProt Q14116 37-193).
T9 chain: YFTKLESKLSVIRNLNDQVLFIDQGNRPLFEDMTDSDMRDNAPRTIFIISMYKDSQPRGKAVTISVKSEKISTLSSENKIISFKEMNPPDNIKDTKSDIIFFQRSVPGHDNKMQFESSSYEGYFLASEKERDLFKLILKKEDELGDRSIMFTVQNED
The assay can be described thus: cell-based or functional assay.

Another assay has as its target T10, IL-18 variant G3V, M60K (human, UniProt Q14116 37-193).
T10 chain: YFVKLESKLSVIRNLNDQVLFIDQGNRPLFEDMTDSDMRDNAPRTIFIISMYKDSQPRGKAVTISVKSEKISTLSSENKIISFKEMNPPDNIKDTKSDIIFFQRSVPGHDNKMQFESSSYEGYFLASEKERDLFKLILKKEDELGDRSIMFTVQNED
The assay can be described thus: cell-based or functional assay.

Assay [11] has as its target T11, IL-18 variant G3T, M60K, D157E (human, UniProt Q14116 37-192).
T11 chain: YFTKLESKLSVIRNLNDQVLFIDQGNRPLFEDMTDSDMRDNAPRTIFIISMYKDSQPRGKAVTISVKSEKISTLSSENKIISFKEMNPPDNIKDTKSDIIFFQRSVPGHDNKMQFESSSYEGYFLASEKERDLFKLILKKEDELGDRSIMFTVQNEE
The assay can be described thus: cell-based or functional assay.

Another assay concerns the target WT IL-18-MonoFc (human). Kind of assay: cell-based or functional assay.

Sequence of WT IL-18-MonoFc (human) (chain, as listed by the source): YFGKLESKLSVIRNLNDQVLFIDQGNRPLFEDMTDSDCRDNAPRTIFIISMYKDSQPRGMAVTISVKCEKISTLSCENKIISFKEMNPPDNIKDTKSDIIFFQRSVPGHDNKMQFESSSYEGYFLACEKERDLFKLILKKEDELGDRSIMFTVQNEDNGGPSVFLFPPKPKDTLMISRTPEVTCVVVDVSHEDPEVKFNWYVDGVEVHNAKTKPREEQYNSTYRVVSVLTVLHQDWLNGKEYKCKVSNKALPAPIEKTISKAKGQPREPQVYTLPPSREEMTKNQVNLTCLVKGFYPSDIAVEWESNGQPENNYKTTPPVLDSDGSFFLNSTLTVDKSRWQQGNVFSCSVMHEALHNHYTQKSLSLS

B1: Comparator 1 (ligand)
chain: YFGKLESKLSVIRNLNDQVLFIDQGNRPLFEDMTDSDCRDNAPRTIFIISKYSDSLARGLAVTISVKCEKISTLSCENKIISFKEMNPPDNIKDTKSDIIFFQRDVPGHSRKMQFESSSYEGYFLACEKERDLFKLILKKEDELGDRSIMFTVQNED
For B1, the “EC50 (pM), PBMC IFN gamma assay, + 300 nM BP” value in [1] turned out to be 8.78 pM. In assay [2], the “EC50 (pM), PBMC IFN gamma assay” value is 4.86 pM.

B2: mouse IL-18BP (other, UniProt Q9Z0M9 29-193, looked up)
chain: TSAPQTTATVLTGSSKDPCSSWSPAVPTKQYPALDVIWPEKEVPLNGTLTLSCTACSRFPYFSILYWLGNGSFIEHLPGRLKEGHTSREHRNTSTWLHRALVLEELSPTLRSTNFSCLFVDPGQVAQYHIILAQLWDGLKTAPSPSQETLSSHSPVSRSAGPGVA
On to B2, for which the “IC50 (read off the curve); IFN gamma from human PBMCs, WT IL-18 at 200 pM, mouse IL-18BP titrated” value with WT human IL-18 [3] was about 2000 pM. Also, the “IC50 (read off the curve); IFN gamma from human PBMCs, G3R/K53S at 200 pM, mouse IL-18BP titrated; partial inhibition” value with IL-18 variant G3R, K53S is about 10000 pM.

B3: mouse IL-18 receptor alpha (receptor, UniProt Q61098 20-326, looked up)
chain: KSCIHRSQIHVVEGEPFYLKPCGISAPVHRNETATMRWFKGSASHEYRELNNRSSPRVTFHDHTLEFWPVEMEDEGTYISQVGNDRRNWTLNVTKRNKHSCFSDKLVTSRDVEVNKSLHITCKNPNYEELIQDTWLYKNCKEISKTPRILKDAEFGDEGYYSCVFSVHHNGTRYNITKTVNITVIEGRSKVTPAILGPKCEKVGVELGKDVELNCSASLNKDDLFYWSIRKEDSSDPNVQEDRKETTTWISEGKLHASKILRFQKITENYLNVLYNCTVANEEAIDTKSFVLVRKEIPDIPGHVFTG
notes: also called Mouse IL18Ra; mouse IL-18R alpha
Take B3: the Kd (usually a measure of binding affinity in units of concentration) in assay [4] was determined as 13.3 nM.

B4: human IL-18 binding protein (IL-18BP) (other, UniProt O95998 31-194, looked up)
chain: TPVSQTTTAATASVRSTKDPCPSQPPVFPAAKQCPALEVTWPEVEVPLNGTLSLSCVACSRFPNFSILYWLGNGSFIEHLPGRLWEGSTSRERGSTGTQLCKALVLEQLTPALHSTNFSCVLVDPEQVVQRHVVLAQLWAGLRATLPPTQEALPSSHSSPQQQG
For B4, the “IC50 (read off the curve); IFN gamma from human PBMCs, WT IL-18 at 200 pM, human IL-18BP titrated” value with WT human IL-18 [5] was about 100 pM. Also, in the assay with IL-18 variant G3E, K53S [6], the “IC50 (read off the curve); IFN gamma from human PBMCs, G3E/K53S at 2000 pM, human IL-18BP titrated; partial inhibition” value is about 1000 pM. In assay [7], the “IC50 (read off the curve); IFN gamma from human PBMCs, G3H/K53S/N91V at 1000 pM, human IL-18BP titrated; partial inhibition” value was about 20000 pM. Moreover, the “Potency - with IL-18BP (IC50), IFN gamma expression in PBMCs” value was 0.096 nM with WT human IL-18 [8]; 0.925 nM with IL-18 variant G3E, K53S [9]; 24.3 nM in assay [10]; 15.3 nM with IL-18 variant G3T, K53S; over 100 nM in the assay with IL-18 variant G3T, M60K; over 100 nM with IL-18 variant G3V, M60K. Further, the results for the “Potency - with IL-18BP (IC50), IFN gamma expression in PBMCs” value (in assay [11]; with WT IL-18-MonoFc) were over 100 nM and 0.096 nM, respectively.
